Results on three molecules are retold here after US20160136272A1, “METHODS FOR RESTORING CORTICOSTEROID SENSITIVITY” (priority 2013, published 2016).

One experiment relates to PBMC. Nature of the experiment: IP-10 production by donor PBMC in response to dsRNA and drug combinations (ELISA). The format is cell-based, human. The settings on record: for IP-10 production in response to polyIC, antibody combined with methotrexate, dexamethasone or Humira / IP-10 production in response to polyAU, antibody combined with methotrexate, dexamethasone or Humira: antibody 50 μg/ml plus dose range of drug; for IP-10 production in response to polyIC, antibody combined with methotrexate, dexamethasone or Humira / IP-10 production in response to polyIC: 30 μg/ml poly(I:C); for IP-10 production in response to polyIC, antibody combined with methotrexate, dexamethasone or Humira: donors 1 and 2; for IP-10 production in response to polyAU, antibody combined with methotrexate, dexamethasone or Humira: 300 μg/ml IPH3102, donor 2; for IP-10 production in response to polyIC / IP-10 production in response to polyAU: antibody 50 μg/ml; for IP-10 production in response to polyIC: 24 h, human donors 1 and 2; for IP-10 production in response to polyAU: 300 μg/ml IPH3102, 24 h, human donor 2. On the procedure: IP-10 production was assessed in human donors in response to polyAU (IPH3102), believed to be a specific agonist of TLR3, or plC, believed to be an agonist of TLR3 as well as other dsRNA receptors such as RIG-I and MDA-5. Fresh PBMC were isolated from whole blood of two independent donors. 1.5×10^6 (donor #1) and 3×10^6 (donor #2) PBMC per ml were incubated in flat-bottom 96W plates in the presence of 50 μg/ml 31C3 or 34A3 anti-human TLR3 mAbs and a dose range of methotrexate (300, 30 and 3 μg/ml), dexamethasone (200, 20, 2 μg/ml) or Humira® (100, 10, 1 μg/ml). Cells were incubated 1 hr at 37° C. prior addition of 300 μg/ml IPH3102 or 30 μg/ml poly(I:C). Cells were incubated for 24 additional hours at 37° C. Supernatant were then harvested to quantify IP10 production by ELISA. Cells were then recovered, stained with 7-AAD and analyzed by flow cytometry (FACS) to evaluate potential toxic effects of any drugs.
A general note: In an ELISA, binding on a coated surface is turned into a signal by an enzyme label.

Another experiment has as its system BEAS-2B cell line. Nature of the experiment: IL-6 and IP-10 production by BEAS-2B cells in response to polyAU (ELISA). The format is cell-based, human. Conditions: 300 μg/ml IPH3102, 24 h. The method, then: IL-6 and IP-10 production was assessed in PBMC and virus-transformed lung epithelial BEAS-2B cell line in response to high molecular weight polyAU (IPH3102), a specific agonist of TLR3. Experiments with BEAS-2B were performed in Bronchial Epithelial Growth Medium (Lonza, #CC-3170). 2×10^4 BEAS-2B per well were plated in flat-bottom 96W plates in 100 μl culture medium and incubated over night at 37° C. A part of the cells was treated for 24-supplemental hours with 1000 UI/ml Intron A (Schering Plough, IFN-alpha 2b). Medium was discarded and 37B7 anti-human TLR3 Ab (0.01 and 0.1 μg/ml in the condition without Intron A and 0.01 and 0.3 μg/ml after treatment with Intron A) was added to the culture. Cells were incubated 30 min at 37° C. prior addition of Dexamethasone (1, 0.1, 0.01, 0.001 μg/ml in the condition […] and 10, 1, 0.1, 0.01 μg/ml after treatment with Intron A) or Budesonide (1, 0.1, 0.01, 0.001 μg/ml). Cells were incubated 30-additional min at 37° C. before addition of 300 μg/ml IPH3102. Cells were finally incubated for 24-additional hours and supernatants were harvested to quantify IL-6 and IP-10 production by ELISA.

B1: 34A3: anti-human TLR3 mAb; VH/VL SEQ ID NO 77/78 (antibody, listed as Mus musculus, V domains shown)
VH: MEWRWIFLFLLSGTTGVHSEIQLQQSGPELVKPGASVKVSCKASGYVFTTYSIYWVKQSHGKSLEWIGYIDPYNGDTSYNQKFKGKATLTVDKSSSTAYMHLNSLTSEDSTVYYCAREGNYYGYFDYWGQGTTLTVS
VL: MDFQVQIFSFLLMSASVIMSRGQIVLTQSPALMSASPGEKVTMTCSASSSVSYMFWYQQKPRSSPKPWIYLTSNLASGVPARFSGSGSGTSYSLTISSMEAEDAATYYCQQWTGNPPTFGGGTKLEIK
As for B1, in the experiment on PBMC, the “IP-10 production in response to polyIC, antibody combined with methotrexate, dexamethasone or Humira” value is reported as “reduce IP-10 further”; the “IP-10 production in response to polyAU, antibody combined with methotrexate, dexamethasone or Humira” value is “reduce IP-10 further”; the “IP-10 production in response to polyIC” value is on record as “substantially reduce IP-10 production”; the “IP-10 production in response to polyAU” value was “substantially reduce IP-10 production”.

B2: 31C3: anti-human TLR3 mAb, cell deposited as 31C3.1, CNCM I-4186; VH/VL SEQ ID NO 75/76 (antibody, listed as Mus musculus, V domains shown)
VH: MGWSWIFLFLLSGTAGVLSEVQLQQSGPELVKPGASVKISCKPSGYSFTAYYMHWVKQSHVKSLEWIGRINPYNGATSYNRNFKDKASLTVDKSSSTAYMELHSLTSEDSAVYYCARSGGNTYFDYWGQGTTLTVS
VL: MSVPTQVLGLLLLWLTGARCDIQMTQSPASLSASVGETVTITCRASENIYSSLAWYQQKQGKSPQLLVYNAKTLAEGVPSRFSGSGSGTQFSSLKINSLQPEDFGTYYCQHHYGTPPTFGGGTKLEIK
For the molecule B2, in the experiment with PBMC, the “IP-10 production in response to polyIC, antibody combined with methotrexate, dexamethasone or Humira” value was “reduce IP-10 further”; the “IP-10 production in response to polyAU, antibody combined with methotrexate, dexamethasone or Humira” value is on record as “reduce IP-10 further”; the “IP-10 production in response to polyIC” value is on record as “substantially reduce IP-10 production”; the “IP-10 production in response to polyAU” value is “substantially reduce IP-10 production”.

B3: 37B7: anti-human TLR3 Ab used in Example 11; VH/VL SEQ ID NO 71/72 (antibody, listed as Rattus norvegicus, V domains shown)
VH: QVQLQQSGTELVKPGSSVKISCKASGYTFTSNYMHWIRQLPGNGLEWIGWIFPGDGDTNYNQKFNGKATLTADKSSSTAYMQLSSLTSEDYAVYFCARSDGDWYFDFWGPGTMVTVSS
VL: DIQMTQSPGSLSASLGETVTIQCQASEDIYSGLAWYQQKPRKSPQLLISAASRLQDGVPSRFSGSGSGTQYSLKISSMQTEDEGVYFCQQGVKYPNTFGPGTKLELK
As for B3, the “IL-6 production by BEAS-2B, anti-TLR3 Ab combined with dexamethasone or budesonide” value in the experiment with BEAS-2B cell line (highest anti-TLR3 Ab dose) is “strong additive inhibition”. Also, the “block of BEAS-2B IL-6 production” value with BEAS-2B cell line (highest concentration of anti-TLR3 Ab) is approximately 50%.
